In assay [1] the target is human Ang2 (human) (UniProt O15123). The assay is described as follows: competition ELISA: hAng2 binding to hTie2.
Assay [2] concerns the target mouse Ang2 (mouse) (UniProt O35608). The assay is described as follows: competition ELISA: mAng2 binding to mTie2.
Assay [3] addresses human Ang2 (human) (UniProt O15123). The assay is described as follows: competition ELISA hAng2/hTie2-Fc, with 0.5 uM HSA [continued]. (In an ELISA, binding on a coated surface is turned into a signal by an enzyme label.)
In assay [4] the target is mouse Ang2 (mouse) (UniProt O35608). The assay is described as follows: competition ELISA: mAng2 binding to mTie2. This is another data set of the same source.
For assay [5], the target named is human Ang2 (human) (UniProt O15123). The assay is described as follows: competition ELISA hAng2/hTie2-Fc.
Assay [6] deals with mouse Ang2 (mouse) (UniProt O35608). The assay is described as follows: competition ELISA: mAng2 binding to mTie2. This is another data set of the same source.
The target in assay [7] is human Ang2 (human) (UniProt O15123). The assay is described as follows: competition ELISA hAng2/hTie2-Fc. This is another data set of the same source.
Assay [8] addresses mouse Ang2 (mouse) (UniProt O35608). The assay is described as follows: competition ELISA: mAng2 binding to mTie2. The source holds these as a separate data set.
In assay [9] the target is human Ang2 (human) (UniProt O15123). The assay is described as follows: competition ELISA hAng2/hTie2-Fc, with 0.5 uM HSA [continued]. The source holds these as a separate data set.
The target in assay [10] is human DLL4, full length, overexpressed on CHO or HEK293 cells (human) (UniProt Q9NR61). The assay is described as follows: competition FMAT: labelled hNotch1-Fc on CHO-hDLL4 cells.
For assay [11] the target is unchanged. The assay is described as follows: competition FMAT: labelled hNotch1/Fc binding to CHO-hDLL4 cells.
The target is the same in assay [12]. The assay is described as follows: competition FMAT: labelled hNotch1-Fc on CHO-hDLL4 cells, with 25 uM HSA [continued].
Assay [13] has as its target recombinant human DLL4 extracellular domain, C-terminally His-tagged (R&D Systems) (human) (UniProt Q9NR61). The assay is described as follows: competition ELISA: 8 nM biotinylated hDLL4 binding to coated hNotch1/Fc.
The target in assay [14] is human DLL4, full length, overexpressed on CHO or HEK293 cells (human) (UniProt Q9NR61). The assay is described as follows: FMAT, Notch1/Fc on CHO-hDLL4.
For assay [15], the target named is mouse DLL4, full length, overexpressed on CHO or HEK293 cells (mouse) (UniProt Q9JI71). The assay is described as follows: competition FMAT: labelled hNotch1-Fc on CHO-mDLL4 cells.
For assay [16] the target is unchanged. Described as above. The source holds these as a separate data set.
Assay [17] deals with human DLL4, full length, overexpressed on CHO or HEK293 cells (human) (UniProt Q9NR61). The assay is described as follows: competition FMAT: labelled hNotch1-Fc on CHO-hDLL4 cells, with 25 uM HSA [continued]. This is another data set of the same source.
Assay [18] addresses mouse DLL4, full length, overexpressed on CHO or HEK293 cells (mouse) (UniProt Q9JI71). The assay is described as follows: competition FMAT: labelled hNotch1/Fc binding to CHO-mDLL4 cells.
For assay [19] the target is unchanged. The assay is described as follows: competition FMAT: labelled hNotch1-Fc on CHO-mDLL4 cells, with 25 uM HSA [continued].
Assay [20] has as its target human DLL4, full length, overexpressed on CHO or HEK293 cells (human) (UniProt Q9NR61). The assay is described as follows: cell-based or functional assay.
For assay [21] the target is unchanged. The assay is described as follows: competition FMAT: labelled hNotch1-Fc on CHO-hDLL4 cells. The source holds these as a separate data set.
The target is the same in assay [22]. The assay is described as follows: competition FMAT: labelled hNotch1/Fc binding to CHO-hDLL4 cells; panel '+ HSA', HSA not marked for this curve [continued].
Assay [23] has as its target mouse DLL4, full length, overexpressed on CHO or HEK293 cells (mouse) (UniProt Q9JI71). The assay is described as follows: FMAT, Notch1/Fc on CHO-mDLL4.
The target in assay [24] is recombinant human DLL4 extracellular domain, C-terminally His-tagged (R&D Systems) (human) (UniProt Q9NR61). The assay is described as follows: competition ELISA: 8 nM biotinylated hDLL4 + binder, residual binding to coated hNotch1-Fc.
Assay [25] concerns the target mouse DLL4, full length, overexpressed on CHO or HEK293 cells (mouse) (UniProt Q9JI71). The assay is described as follows: competition FMAT: labelled hNotch1/Fc binding to CHO-mDLL4 cells; panel '+ HSA', HSA not marked for this curve [continued].
Assay [26] concerns the target recombinant human DLL4 extracellular domain, C-terminally His-tagged (R&D Systems) (human) (UniProt Q9NR61). The assay is described as follows: hDLL4/hNotch1 competition AlphaScreen. (In general: In Alpha technology, singlet oxygen from a donor bead excites a nearby acceptor bead.)
The target in assay [27] is mouse DLL4, full length, overexpressed on CHO or HEK293 cells (mouse) (UniProt Q9JI71). The assay is described as follows: competition FMAT: labelled hNotch1-Fc on CHO-mDLL4 cells, with 25 uM HSA [continued]. This is another data set of the same source.
Assay [28] has as its target recombinant mouse DLL4 extracellular domain, C-terminally His-tagged (R&D Systems) (mouse) (UniProt Q9JI71). The assay is described as follows: binding ELISA on coated rmDLL4.
The target of assay [29] is recombinant human DLL4 extracellular domain, C-terminally His-tagged (R&D Systems) (human) (UniProt Q9NR61). The assay is described as follows: binding ELISA on coated rhDLL4.
The target in assay [30] is mouse DLL4, full length, overexpressed on CHO or HEK293 cells (mouse) (UniProt Q9JI71). The assay is described as follows: competition FMAT: labelled hNotch1/Fc binding to CHO-mDLL4 cells; panel '+ HSA', HSA not marked for this curve [continued]. The source holds these as a separate data set.
The target of assay [31] is recombinant human DLL4 extracellular domain, C-terminally His-tagged (R&D Systems) (human) (UniProt Q9NR61). The assay is described as follows: hDLL4/hNotch1-Fc competition ELISA.
Assay [32] shares this target. The assay is described as follows: competition ELISA: 8 nM biotinylated hDLL4 + binder, residual binding to coated hNotch1-Fc. This is another data set of the same source.
In assay [33] the target is mouse DLL4, full length, overexpressed on CHO or HEK293 cells (mouse) (UniProt Q9JI71). The assay is described as follows: competition FMAT: labelled hNotch1/Fc binding to CHO-mDLL4 cells. This is another data set of the same source.

As usually defined, the IC50 is the point on the concentration scale where inhibition reaches its midpoint. One may read the EC50 (read off the curve) as the concentration giving half of the maximal effect.

Read-outs that look alike come from different tables or passages of the source.

Sequence of mouse DLL4, full length, overexpressed on CHO or HEK293 cells (mouse) (Q9JI71 27-686): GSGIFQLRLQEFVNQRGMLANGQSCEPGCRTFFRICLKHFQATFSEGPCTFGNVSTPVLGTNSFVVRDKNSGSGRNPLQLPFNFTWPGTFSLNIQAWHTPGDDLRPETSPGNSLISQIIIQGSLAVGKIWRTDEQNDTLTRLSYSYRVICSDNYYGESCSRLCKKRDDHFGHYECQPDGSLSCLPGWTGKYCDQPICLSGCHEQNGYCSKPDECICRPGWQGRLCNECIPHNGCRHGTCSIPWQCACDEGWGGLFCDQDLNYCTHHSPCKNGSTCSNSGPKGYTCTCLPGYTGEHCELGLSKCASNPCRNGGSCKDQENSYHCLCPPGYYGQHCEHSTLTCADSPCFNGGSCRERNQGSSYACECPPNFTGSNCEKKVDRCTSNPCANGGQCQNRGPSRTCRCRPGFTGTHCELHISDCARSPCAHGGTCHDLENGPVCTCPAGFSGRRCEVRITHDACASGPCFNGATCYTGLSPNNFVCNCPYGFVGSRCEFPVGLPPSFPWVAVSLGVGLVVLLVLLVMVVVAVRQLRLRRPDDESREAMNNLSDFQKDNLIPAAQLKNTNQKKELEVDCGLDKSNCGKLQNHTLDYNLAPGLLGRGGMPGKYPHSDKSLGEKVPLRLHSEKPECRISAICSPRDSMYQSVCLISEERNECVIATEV
Sequence of mouse Ang2 (mouse) (O35608 19-496 limits assumed): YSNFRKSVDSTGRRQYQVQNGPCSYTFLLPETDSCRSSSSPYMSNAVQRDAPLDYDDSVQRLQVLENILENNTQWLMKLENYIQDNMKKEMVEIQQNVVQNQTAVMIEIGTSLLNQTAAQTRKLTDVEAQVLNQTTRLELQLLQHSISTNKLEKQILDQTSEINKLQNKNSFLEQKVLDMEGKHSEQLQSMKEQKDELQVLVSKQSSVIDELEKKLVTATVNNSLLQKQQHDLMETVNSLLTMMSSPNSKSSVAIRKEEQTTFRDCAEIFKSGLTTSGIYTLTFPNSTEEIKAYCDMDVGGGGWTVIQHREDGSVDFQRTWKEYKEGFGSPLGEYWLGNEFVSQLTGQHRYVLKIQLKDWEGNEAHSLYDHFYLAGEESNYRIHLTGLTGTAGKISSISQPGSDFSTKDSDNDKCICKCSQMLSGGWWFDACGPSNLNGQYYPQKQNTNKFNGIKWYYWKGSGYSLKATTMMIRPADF
Sequence of human Ang2 (human) (O15123 19-496 limits assumed): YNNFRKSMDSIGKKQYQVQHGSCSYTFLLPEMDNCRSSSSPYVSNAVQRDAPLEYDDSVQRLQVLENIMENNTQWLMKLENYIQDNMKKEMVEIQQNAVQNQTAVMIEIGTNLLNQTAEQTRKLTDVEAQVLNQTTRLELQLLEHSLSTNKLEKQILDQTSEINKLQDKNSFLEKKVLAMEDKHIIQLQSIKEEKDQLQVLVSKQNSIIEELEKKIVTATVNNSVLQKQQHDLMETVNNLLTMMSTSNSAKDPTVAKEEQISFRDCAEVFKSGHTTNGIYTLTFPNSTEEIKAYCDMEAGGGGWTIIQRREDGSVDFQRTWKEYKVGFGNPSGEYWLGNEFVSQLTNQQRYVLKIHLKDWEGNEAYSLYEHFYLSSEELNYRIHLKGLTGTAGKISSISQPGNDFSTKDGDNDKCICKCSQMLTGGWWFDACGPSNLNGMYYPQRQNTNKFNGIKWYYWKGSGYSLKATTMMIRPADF
Sequence of recombinant mouse DLL4 extracellular domain, C-terminally His-tagged (R&D Systems) (mouse) (Q9JI71 27-525 limits assumed): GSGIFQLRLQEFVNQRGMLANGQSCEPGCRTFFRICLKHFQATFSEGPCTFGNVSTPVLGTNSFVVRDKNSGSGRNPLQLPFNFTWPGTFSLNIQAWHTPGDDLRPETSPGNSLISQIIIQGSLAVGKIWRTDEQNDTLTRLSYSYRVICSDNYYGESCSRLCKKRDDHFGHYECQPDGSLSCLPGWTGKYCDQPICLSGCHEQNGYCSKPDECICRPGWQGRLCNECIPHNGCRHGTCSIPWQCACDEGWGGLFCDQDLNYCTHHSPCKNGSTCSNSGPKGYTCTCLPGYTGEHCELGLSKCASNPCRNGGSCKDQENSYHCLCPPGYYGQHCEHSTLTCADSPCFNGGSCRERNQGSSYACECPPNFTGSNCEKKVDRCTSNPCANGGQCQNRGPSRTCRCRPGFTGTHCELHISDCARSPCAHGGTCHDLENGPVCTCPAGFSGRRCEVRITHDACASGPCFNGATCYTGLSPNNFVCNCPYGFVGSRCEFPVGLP

As to AMG386, the IC50 (read off the curve) in assay [1] amounted to 0.003 nM; in assay [2], 0.003 nM; in assay [3], 0.005 nM; in assay [4] it was 0.007 nM; in [5], 0.005 nM; in assay [6], 0.004 nM. Further, the IC50 (read off the curve) in assay [7] worked out at 0.004 nM; in assay [8], 0.009 nM; in assay [9], 0.004 nM.
With “anti-DLL4 Fab fragment (Fab of the Genentech DII4 mAb of US 2008/0014196)”, the IC50 (read off the curve) is 5 nM in assay [10]; 4 nM in [11]; 7 nM in assay [12]; 3 nM in assay [13]; 2 nM in [15]; 1 nM in assay [16]. Also, the IC50 (read off the curve) in assay [17] was determined as 4 nM; in assay [18], 3 nM; in [19], 1 nM; in assay [21], 7 nM; in assay [22], 3 nM; in assay [24] it was 4 nM. The IC50 (read off the curve) in assay [25] is 3 nM; in assay [27], 2 nM; in assay [30], 2 nM; in assay [32], 5 nM; in assay [33], 2 nM. In addition, the IC50 came to 5.4 nM in assay [14], 2.3 nM in assay [23], 0.3 nM in assay [26] and 0.7 nM in assay [31]. In assay [20], this substance yielded an IC50, DLL4/Notch1 reporter assay (luciferase; co-culture with HEK293-hDII4) of 133 nM. Further, the EC50 (read off the curve) was determined as 0.9 nM in [28] and 0.8 nM in assay [29].

The record behind these values is patent US20130078247A1.
